Laboratory results reported in the supplement of paper PMC11865577.

Legend:
Experiment in all cases: pull-down binding Z-score (relative to library population); higher = stronger binding
[1] = test system: TO-3-N3-2 (biotin conjugate); details: RNA library: Library-2
Procedure, shortened: (§1)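 Heat-folded RNA library (1 μg, Cy5 or Cy3 end label, phosphate/NaCl/KCl buffer) was captured for 60 min at 25 °C on streptavidin beads displaying 100 pmol of biotin-conjugated small molecule, then washed three times. The bound fraction, eluted in hot SDS, was hybridised to a DNA barcode microarray at 55.5 °C for 20 h. Z-scores for binding were taken against the library mean and standard deviation after beads-only subtraction and trimmed averaging of replicate barcoded probes.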

[2] = test system: TO-N3-2 (biotin conjugate); details: RNA library: Library-2
Procedure, shortened: as §1

[3] = test system: G-clamp-N3 (biotin conjugate); details: RNA library: Library-1 (pre-miRNA loops + repeats)
Procedure, shortened: as §1

[4] = test system: TO-3-N3 (biotin conjugate); details: RNA library: Library-2
Procedure, shortened: as §1

TO-N3 (biotin conjugate) = details: RNA library: Library-2
Procedure, shortened: as §1

Sequence	pull-down binding Z-score [1]	pull-down binding Z-score [2]	pull-down binding Z-score [3]	pull-down binding Z-score [4]	pull-down binding Z-score (TO-N3 (biotin conjugate))
GCAGCAGGCACCUGCUUCC [hsa-mir-6868]	0.16	1.49	-0.816	0.367	0.984
GCAGCCAGUCCUGUCUCACCGC [hsa-mir-6812]	-0.105	1.08	-0.666	-0.19	0.14
GCAGCCUUCUGCCUUUGGCUUUCUGAAGCGAGCUGA [hsa-mir-7158]	0.292	1.09	-0.699	0.327	0.769
GCAGCCUUGC [hsa-mir-4298]	-0.244	0.0238	0.364	0.177	0.264
GCAGCUAGUAAUAUGAGCCCAGUUGC [hsa-mir-153-2]	-0.0986	0.128	-0.831	0.0352	-0.011
GCAGCUAGUAUUCUCACUCCAGUUGC [hsa-mir-153-1]	-0.655	0.592	-1.31	-0.447	-0.204
GCAGCUGGAAUUCAAGCCCUGCUGC [hsa-mir-6882]	-0.319	0.0816	-0.0183	-0.477	-0.475
GCAGGCCGUGAACUCGUCGAGCUGCGCGUGCGGCCGGUGCUCA [hsa-mir-1199]	0.103	2.02	0.693	0.55	1.47
GCAGGGACCCCUCCAAGUUGGGGACGGCAGC [hsa-mir-6858]	0.0497	1.09	-0.0891	0.172	0.676
GCAGGUAGCUUUUUGAGAUCUACUGC [hsa-mir-106a]	-0.00277	-0.248	0.281	-0.704	-0.711
GCAGUCCUGUGGGAAUGAGAGAUGCCAAACUGGACCUGC [hsa-mir-3972]	0.373	1.38	1.52	0.53	1.4
GCAGUCUGCUUUGUGCCAACACUGGGGUGAUGACUGC [hsa-mir-3157]	-0.203	0.186	1.23	0.502	0.442
GCAGUGUCGUGGUCACAGCUUGCUGC [hsa-mir-1273h]	-0.171	1.12	1.45	-0.396	-0.0941
GCAUAAAAACAACUUUUGGGGGACAGGUAUGUUUUCUUGC [hsa-mir-5047]	2.38	0.797	0.0757	2.96	2.3
GCAUAUAGAGUAUAUGC [hsa-mir-4657]	0.0599	-0.526	0.625	-0.323	-0.435
GCAUCCAGACAGCGGGCGAAUGC [hsa-mir-6836]	-0.113	1.13	0.0557	-0.0821	0.33
GCAUCCUUGGAAUCUGCACUCAAGGGAUGC [hsa-mir-5089]	-0.0765	0.0295	0.605	0.451	0.358
GCAUGCCC [hsa-mir-1178]	0.000996	0.552	-0.547	0.196	0.287
GCAUGGGGCUAGGAGGCCCCGCGC [hsa-mir-6825]	0.00553	0.142	-0.292	0.451	0.391
GCAUUUUAUCUAAGAUACACACAAAGCAAAUGC [hsa-mir-4439]	0.179	-0.81	-1.12	0.441	0.118
GCCACAUGAGCUGGGCCUCGUGGGC [hsa-mir-770]	-0.342	0.565	-0.657	0.237	0.189
GCCAGACAUGCUCUUGC [hsa-mir-6894]	-0.349	0.707	-1.34	-0.504	-0.472
GCCAGAUGCUGAGCGAUGGC [hsa-mir-4730]	-0.12	0.603	0.503	-0.32	-0.217
GCCAGCAACCUGAUUACCCCUCUUUGGC [hsa-mir-6851]	-0.495	0.533	-0.819	-0.53	-0.552
GCCAGUCAGCGCUCACAUUAAGGCUGAC [hsa-mir-2277]	-0.0851	0.0682	-0.612	-0.289	-0.222

Sequence	pull-down binding Z-score [1]	pull-down binding Z-score [2]	pull-down binding Z-score [3]	pull-down binding Z-score [4]	pull-down binding Z-score (TO-N3 (biotin conjugate))
GCCAGUGUGUAAAAUGAGAACUGAUA [hsa-mir-3074]	0.757	1.66	0.474	0.677	1.14
GCCAGUGUUCAAGGGCCCCUCCUCUAGUACUCCCUGUUUGUGUUCUGCCACUGA [hsa-mir-6857]	0.527	1.37	-0.797	0.324	1.1
GCCAUCUGGUUGUGACAUCACUGAUGGC [hsa-mir-7155]	0.0839	0.128	-0.231	1.09	0.932
GCCAUGGAAAGUAAUGGC [hsa-mir-548ax]	-0.112	0.319	0.538	-0.0453	-0.269
GCCCCAGGGCAGGGGC [hsa-mir-4515]	-0.473	-0.972	1.01	-0.247	-0.583
GCCCGCUGUGUUCACUCGGGC [hsa-mir-602]	-0.556	-0.52	0.773	-0.169	-0.398
GCCCGGGCACCGCCCCUU [hsa-mir-718]	-0.109	0.973	-1.53	-0.0729	0.203
GCCCUGGGCCGGGCGAUGUCCGCUUGGGGG [hsa-mir-6090]	0.149	1.41	-0.223	0.811	1.11
GCCGCGGAAGAAGGGGAAGCGC [hsa-mir-6720]	0.61	1.86	2.21	1.46	1.61
GCCGGAGCGGGC [hsa-mir-1181]	0.0808	0.58	1.74	0.493	0.703
GCCGGGGCCUGGCGCUCCUCUACCUUGUCAGGUGACCCAGC [hsa-mir-4274]	-0.179	0.434	-1.05	0.564	0.538
GCCUCCUGGAUCUCUAGGUCUCAGGGC [hsa-mir-6744]	-0.302	0.118	-0.189	-0.282	-0.272
GCCUCGCUUCCUGCCGGCGCGGC [hsa-mir-1538]	-0.601	0.147	-0.287	-0.255	-0.389
GCCUCUCUGAGCAUGCAUUCCUGAGACUC [hsa-mir-5695]	0.0721	0.547	-1.38	0.286	0.481
GCCUCUUCUCCAUGAGAGGC [hsa-mir-885]	-0.322	-1.37	1.74	-0.689	-1.07
GCCUGCCCUGAGUCCCCCAGCAGGU [hsa-mir-3907]	0.663	0.912	-0.55	1.45	1.46
GCCUGCGGGCAGGAAGCGGA [hsa-mir-3928]	1.34	2.23	-0.0318	1.57	1.87
GCCUGUGUAGACGGGGACCUGCCCUGCAUGGGCACCCCCUCACUGGC [hsa-mir-6762]	0.322	0.347	-0.617	0.332	0.173
GCCUUGUGGCAUGGAGUUCAAGC [hsa-mir-107]	0.0909	1.54	0.5	0.468	0.851
GCCUUGUUGCAUAUGGAUCAAGC [hsa-mir-103a-1]	-0.376	0.388	0.266	-0.346	-0.178
GCCUUUCAACAUAAUGGC [hsa-mir-548w]	-0.214	-0.827	1.21	-0.0045	-0.352
GCGCGGGAAAGUUCGGGAACGCGCG [hsa-mir-4479]	0.246	1.72	0.488	0.386	0.854
GCGGCCGCGCUGGCCGCU [hsa-mir-3665]	-0.548	0.524	1.02	-0.0786	-0.0622
GCGGCUGUUAAUGAUUUUAACAGUUGC [hsa-mir-449c]	-0.119	-1.2	0.888	-0.84	-1.14
GCGGGAGCCAGGCCGC [hsa-mir-3185]	0.0586	0.896	3.26	-0.123	-0.0208

Sequence	pull-down binding Z-score [1]	pull-down binding Z-score [2]	pull-down binding Z-score [3]	pull-down binding Z-score [4]	pull-down binding Z-score (TO-N3 (biotin conjugate))
GCGGGGAACGAGGCCGUCGGCCAUUUUGUG [hsa-mir-632]	0.912	1.58	1.04	1.2	1.59
GCGGGGGUGGGGGCCUCGCCCUGCUUGGGCCCUCCCUGAC [hsa-mir-6821]	1.75	2.31	0.419	2.12	2.47
GCGGGGUGUGGUGGGGCUGGGGCUGGCCCCCUCCUCACACCUC [hsa-mir-6800]	5.35	3.96	1.21	4.74	4.29
GCGGUUUUUGCCAUUACUUUUCAUUUUUACCAUUAAAAGUAAUGGCAAAAAGCAU [hsa-mir-548q]	0.225	-0.56	-0.112	-0.964	-1.09
GCGGUUUUUGCUAUUGGUUUUAAUGGC [hsa-mir-548au]	-0.189	-0.183	-0.139	-0.185	-0.205
GCGUCACGUGCACCCAAGUGACGC [hsa-mir-6786]	0.171	0.796	-0.196	0.576	0.688
GCGUCGCUUCUCCCUAAUGUUGCC [hsa-mir-6781]	0.089	0.502	-0.106	-0.385	-0.068
GCUAACUGUGACCUUAGC [hsa-mir-4729]	-0.181	-0.478	-0.373	0.00513	-0.187
GCUACUGUCUGCACCUGUCACUAGCAGU [hsa-mir-130a]	-0.0477	1.58	-1.49	-0.279	1.12
GCUAGUGCUGGCUCAAUGCAAUGC [hsa-mir-502]	-0.0546	0.637	-0.151	-0.322	-0.0527
GCUCAAGCCACAGCAGGGUGUUUAGCGCUCUUCAGUGGCUCCAG [hsa-mir-1203]	-0.102	1.14	-1.23	-0.00832	0.563
GCUCCCAACCAACCACUUCCACAUGUUUUGCUGGU [hsa-mir-4451]	0.239	0.308	-1.34	0.136	0.244
GCUCUAAUAAUUUAUUCUAAUAAUAAUUUAGAUC [hsa-mir-7976]	-0.379	-1.31	-0.269	-0.976	-1.19
GCUCUGGGGAUUUGGUCUCACAGC [hsa-mir-3940]	-0.38	-0.339	0.507	-0.54	-0.497
GCUGAAACACAGUUGGUUUGUGUACACUGGC [hsa-mir-24-2]	-0.521	-0.00258	0.212	-0.415	-0.193
GCUGAACCCCUGCCCCUGGAGCCCCCAGCAGGGCCCUC [hsa-mir-7162]	0.612	1.85	-1.32	0.665	1.34
GCUGAGCCCUUUGAUAAGGGGGAGGUU [hsa-mir-8080]	-0.219	0.545	-0.454	0.21	0.361
GCUGAGGUUGCGUUGACGCUCGC [hsa-mir-1292]	-0.0926	1.17	0.447	0.0445	0.384
GCUGCACUGUCUCCGUCUGCGG [hsa-mir-4519]	0.0588	1.43	-0.081	-0.24	0.595
GCUGCAGAUCUUUGUCUAAGCAGC [hsa-mir-4498]	-0.207	-0.274	-0.879	-0.346	-0.555
GCUGCAGGCAAAGCUGGGG [hsa-mir-711]	0.123	1.07	-0.426	0.431	0.901
GCUGCCAGGAAAUCCCUAUUUCAUAUAAGAGGGGGCUGGCUGGUUGC [hsa-mir-448]	0.236	0.355	1.08	0.185	0.447
GCUGCCAUCUCCCACUGGCUGC [hsa-mir-4736]	-0.495	0.0852	-0.492	-0.569	-0.536
GCUGCCCCUUUGCUCUCUGGGGUAGC [hsa-mir-3614]	0.0223	-0.388	0.721	0.491	0.258
